Assay results from patent US20170088602A1 (Bristol-Myers Squibb, published 2017).
Like-named read-outs stand apart in the source and are kept apart here.

How the values were obtained:
[1] = target: T1, human BMP-11 (GDF-11; R&D Systems) (human, UniProt O95390 299-407); test: SPR Format B; immobilized BMP11 with pre-bound PRD-1474 as competitor
T1 sequence (looked up): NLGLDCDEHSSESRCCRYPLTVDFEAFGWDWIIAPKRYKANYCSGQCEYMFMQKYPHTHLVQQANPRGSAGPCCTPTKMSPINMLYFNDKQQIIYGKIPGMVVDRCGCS
Protocol: (§1) Adnectin competition using “SPR format B”: The mechanism of action for anti-myostatin Adnectins was further evaluated in “SPR Format B”, where myostatin or BMP11 (10 μg/ml in 10 mM acetate pH 4.5) were directly immobilized on a CM5 sensor chip surface using EDC/NHS coupling chemistry to a density of 985 RU (myostatin) or 530 RU (BMP11). […] The running buffer for immobilization and competition experiments was 10 mM HEPES, 150 mM NaCl, 3 mM EDTA, and 0.05% v/v Surfactant P20, pH 7.4, and surfaces were regenerated between cycles using 4 injections of 50 mM NaOH for 15 s at 30 μl/min.

[2] = target: T1, human BMP-11 (GDF-11; R&D Systems); test: SPR Format A; 100 nM BMP11 with 200 nM ATI-1523 as competitor
Protocol: (§2) Competition SPR: Competitive binding assays to evaluate the ability of anti-myostatin Adnectins to compete with Type I and Type II receptors for binding to myostatin or BMP11, as a surrogate for myostatin, were also conducted using SPR on a Biacore T100 instrument, in two different experimental formats. In “SPR Format A”, sensor chip surfaces were prepared by immobilizing 100 ug/ml protein A (Pierce) in 10 mM acetate pH 4.5 to 4500 RU on a CM5 sensor chip (Biacore/GE Healthcare) using standard ethyl(dimethylaminopropyl) carbodiimide (EDC)/N-hydroxysuccinimide (NHS) chemistry, with ethanolamine blocking. […] The running buffer for immobilization and competition experiments was 10 mM HEPES, 150 mM NaCl, 3 mM EDTA, and 0.05% v/v Surfactant P20, pH 7.4, and surfaces were regenerated between cycles using two injections of 10 mM glycine pH 1.5 for 30 s at 30 μl/min.

[3] = target: T1, human BMP-11 (GDF-11; R&D Systems); test: SPR Format B; immobilized BMP11, no pre-bound PRD-1474
Protocol: as §1

[4] = target: T1, human BMP-11 (GDF-11; R&D Systems); test: SPR Format A; 100 nM BMP11 alone
Protocol: as §2

[5] = target: T2, human myostatin (mature, recombinant; R&D Systems) (human, UniProt O14793 267-375); test: cell-based or functional assay
T2 sequence: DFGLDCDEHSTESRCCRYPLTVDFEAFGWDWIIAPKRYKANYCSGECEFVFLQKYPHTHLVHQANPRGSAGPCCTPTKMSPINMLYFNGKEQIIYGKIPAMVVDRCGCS

[6] = target: T2, human myostatin (mature, recombinant; …); test: cell-based or functional assay; remark: listed apart in the source
[7] = target: T2, human myostatin (mature, recombinant; …); test: competitive HTRF, alanine scan
[8] = target: T2, human myostatin (mature, recombinant; …); test: HTRF competition binding assay, alanine mutant against 3116_A06
[9] = target: T3, human Activin A (R&D Systems) (human, UniProt P08476 311-426); test: SPR format A, 25C
T3 sequence (looked up): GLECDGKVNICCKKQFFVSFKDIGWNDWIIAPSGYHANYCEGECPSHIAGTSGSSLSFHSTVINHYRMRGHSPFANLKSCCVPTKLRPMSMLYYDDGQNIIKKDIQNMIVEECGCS
Description: (§3) Anti-human Fc antibody (Biacore/GE) was immobilized on a Biacore CM5 chip via NHS/EDC coupling according to the manufacturer's instructions. […] A concentration range of anti-myostatin Adnectin was applied across all flow cells in HBSP running buffer. Regeneration of the chip surface between cycles was accomplished with two 30 second pulses of 3M MgCl₂. Kinetic traces of reference-subtracted sensorgrams were fit to a 1:1 binding model using Biaevaluation software.

[10] = target: T2, human myostatin (mature, recombinant; …); test: SPR format A, 25C
Description: as §3

[11] = target: T1, human BMP-11 (GDF-11; R&D Systems); test: SPR format A, 25C
Description: as §3

[12] = target: T3, human Activin A (R&D Systems); test: cell-based or functional assay
[13] = target: T2, human myostatin (mature, recombinant; …); test: cell-based or functional assay; remark: listed apart in the source
[14] = target: T1, human BMP-11 (GDF-11; R&D Systems); test: cell-based or functional assay
[15] = target: T2, human myostatin (mature, recombinant; …); test: cell-based or functional assay; remark: listed apart in the source
[16] = target: T3, human Activin A (R&D Systems); test: cell-based or functional assay; remark: listed apart in the source
[17] = target: T2, human myostatin (mature, recombinant; …); test: cell-based or functional assay; remark: listed apart in the source
[18] = target: T1, human BMP-11 (GDF-11; R&D Systems); test: cell-based or functional assay; remark: listed apart in the source

B1: ALK4-Fc (R&D Systems) (Fc fusion, UniProt P36896 24-126, looked up, not shown: a dimerising Fc or GST)
chain: SGPRGVQALLCACTSCLQANYTCETDGACMVSIFNLDGMEHHVRTCIPKVELVPAGKPFYCLSSEDLRNTHCCYTDYCNRIDLRVPSGHLKEPEHPSMWGPVE
notes: also called activin receptor-like kinase 4 Fc
For B1, the “SPR binding response (normalized)” value [1] was 30%, the “SPR binding response (normalized)” value [2] was 2% and the “SPR binding response (normalized)” value [3] was 100%. The “SPR binding response (normalized)” value [4] was 100%.

B2: ActRIIB-Fc (produced in house) (Fc fusion, UniProt Q13705 19-134, looked up, not shown: a dimerising Fc or GST)
chain: SGRGEAETRECIYYNANWELERTNQSGLERCEGEQDKRLHCYASWRNSSGTIELVKKGCWLDDFNCYDRQECVATEENPQVYFCCCEGNFCNERFTHLPEAGGPEVTYEPPPTAPT
With B2 the “SPR binding response (normalized)” value [2] was 189% and the “SPR binding response (normalized)” value [4] was 100%.

B3: ActRIIB-monomer (produced in house) (receptor, UniProt Q13705 19-134, looked up)
chain: SGRGEAETRECIYYNANWELERTNQSGLERCEGEQDKRLHCYASWRNSSGTIELVKKGCWLDDFNCYDRQECVATEENPQVYFCCCEGNFCNERFTHLPEAGGPEVTYEPPPTAPT
With B3 the “SPR binding response (normalized)” value [1] was 92% and the “SPR binding response (normalized)” value [3] was 100%.

B4: 3116_A06 G30A (designed binder)
chain: MGVSDVPRDLEVVAATPTSLLISWSLPHQAKANYYRITYGETGGNSPVQEFTVPGRGVTATISGLKPGVDYTITVYAVTVTDTGYLKYKPISINYRTEIDKPSQHHHHHH
B4 was tested, and the “Myostatin ARE-luc IC50” value [5] was 40 nM, the “ARE-luciferase cell-based assay, IC50 relative to parent sequence” value [6] was greater than 10 fold and the IC50 [7] was 5.1 nM. The “fold increase in IC50 relative to the parental sequence (WT)” value [8] was greater than 10 fold.

B5: 3116_A06 V80A (designed binder)
chain: MGVSDVPRDLEVVAATPTSLLISWSLPHQGKANYYRITYGETGGNSPVQEFTVPGRGVTATISGLKPGVDYTITVYAVTATDTGYLKYKPISINYRTEIDKPSQHHHHHH
In the case of B5, the “Myostatin ARE-luc IC50” value [5] is reported as greater than 100 nM, the IC50 [7] is reported as 4 nM and the “fold increase in IC50 relative to the parental sequence (WT)” value [8] is reported as greater than 10 fold.

B6: 3116_A06 T81A (designed binder)
chain: MGVSDVPRDLEVVAATPTSLLISWSLPHQGKANYYRITYGETGGNSPVQEFTVPGRGVTATISGLKPGVDYTITVYAVTVADTGYLKYKPISINYRTEIDKPSQHHHHHH
With B6 the “Myostatin ARE-luc IC50” value [5] was 32 nM, the “ARE-luciferase cell-based assay, IC50 relative to parent sequence” value [6] was greater than 10 fold and the IC50 [7] was 4.9 nM. The “fold increase in IC50 relative to the parental sequence (WT)” value [8] was greater than 10 fold.

B7: 3116_A06 Y88A (designed binder)
chain: MGVSDVPRDLEVVAATPTSLLISWSLPHQGKANYYRITYGETGGNSPVQEFTVPGRGVTATISGLKPGVDYTITVYAVTVTDTGYLKAKPISINYRTEIDKPSQHHHHHH
With B7 the “Myostatin ARE-luc IC50” value [5] was greater than 100 nM, the IC50 [7] was 11 nM and the “fold increase in IC50 relative to the parental sequence (WT)” value [8] was greater than 10 fold.

B8: 2062_G02 (designed binder)
chain: MGVSDVPRDLEVVAATPTSLLISWVSPRGRARYYRITYGETGGNSPVQEFTVPGRGSTATISGLKPGVDYTITVYAVTIYRDGMSHHDPISINYRTEIDKPSQHHHHHH
notes: also called ATI-1134
In the case of B8, the binding result [9] is reported as “no binding”, the Kd [10] is reported as 48.8 nM and the Kd [11] is reported as 697 nM. The “ARE-luciferase IC50” value [12] was greater than 1500 nM, the “ARE-luciferase IC50” value [13] was 205 nM and the “ARE-luciferase IC50” value [14] was 1500 nM. The “pSmad2 IC50, 12-point” value [15] was 59.1 nM.

B9: 2523_G06 (designed binder)
chain: MGVSDVPRDLEVVAATPTSLLISWWAPLGLARYYRITYGETGGNSPVQEFTVPGRGSTATISGLKPGVDYTITVYAVTIFRTGMVQYDPISINYRTEIDKPSQHHHHHH
B9 was tested, and the binding result [9] was “no binding”, the Kd [10] was 1.47 nM and the Kd [11] was 10.7 nM. For the same binder, the “ARE-luciferase IC50” value [12] was greater than 2000 nM, the “ARE-luciferase IC50” value [13] was 4.2 nM and the “ARE-luciferase IC50” value [14] was 46 nM. The “pSmad2 IC50, 12-point” value [15] was 0.78 nM.

B10: ATI-1107 [40K 2-branch PEG] (designed binder)
chain: MGVSDVPRDLEVVAATPTSLLISWSLPHAGHVNYYRITYGETGGNSPVQEFTVPGRGVTATISGLKPGVDYTITVYAVTLTKSQMIHYMPISINYRTGSGCHHHHHH
modifications: 40K 2-branch PEG on the Cys of the GSGC tail
notes: cysteine mutant of 1979_B06
B10 was tested, and the “ARE-luciferase IC50” value [16] was greater than 2000 nM, the “ARE-luciferase IC50” value [17] was 19 nM and the “ARE-luciferase IC50” value [18] was 888 nM. For the same binder, the binding result [9] was “no binding”, the Kd [10] was 128 nM and the Kd [11] was roughly 300 nM.

B11: 1979_B06 (designed binder)
chain: MGVSDVPRDLEVVAATPTSLLISWSLPHAGHVNYYRITYGETGGNSPVQEFTVPGRGVTATISGLKPGVDYTITVYAVTLTKSQMIHYMPISINYRTEIDKPSQHHHHHH
notes: monoAdnectin with His6 tag; also called ATI-1133
With B11 the binding result [9] was “no binding”, the Kd [10] was 29 nM and the Kd [11] was 489 nM. The “ARE-luciferase IC50” value [12] was 194 nM, the “ARE-luciferase IC50” value [13] was 0.11 nM and the “ARE-luciferase IC50” value [14] was 3.3 nM. The “pSmad2 IC50, 12-point” value [15] was 12.8 nM.

B12: 2524_C11 (designed binder)
chain: MGVSDVPRDLEVVAATPTSLLISWTLPHAGLAHYYRITYGETGGNSPVQEFTVPGRGVTATISGLKPGVDYTITVYAVTLTNSEIILYKPISINYRTEIDKPSQHHHHHH
In the case of B12, the binding result [9] is reported as “no binding”, the Kd [10] is reported as 0.62 nM and the Kd [11] is reported as 0.67 nM. The “ARE-luciferase IC50” value [12] was 765 nM, the “ARE-luciferase IC50” value [13] was 0.1 nM and the “ARE-luciferase IC50” value [14] was 0.89 nM. The “pSmad2 IC50, 12-point” value [15] was 0.14 nM.

B13: 2524_H11 (designed binder)
chain: MGVSDVPRDLEVVAATPTSLLISWSLPHAGHAHYYRITYGETGGNSPVQEFTVPGRGVTATISGLKPGVDYTITVYAVTVSSTKVIVYLPISINYRTEIDKPSQHHHHHH
In the case of B13, the binding result [9] is reported as “no binding”, the Kd [10] is reported as 1.12 nM and the Kd [11] is reported as 1.22 nM. The “ARE-luciferase IC50” value [12] was greater than 1000 nM, the “ARE-luciferase IC50” value [13] was 0.03 nM and the “ARE-luciferase IC50” value [14] was 6.2 nM. The “pSmad2 IC50, 12-point” value [15] was 0.11 nM.

B14: 2524_E10 (designed binder)
chain: MGVSDVPRDLEVVAATPTSLLISWSLPFAGHLNYYRITYGETGGNSPVQEFTVPGRGVTATISGLKPGVDYTITVYAVTLTRSKIIHYMPISINYRTEIDKPSQHHHHHH
B14 was tested, and the binding result [9] was “no binding”, the Kd [10] was 1.34 nM and the Kd [11] was 1.42 nM. For the same binder, the “ARE-luciferase IC50” value [12] was greater than 1000 nM, the “ARE-luciferase IC50” value [13] was 0.09 nM and the “ARE-luciferase IC50” value [14] was 5.6 nM. For the same binder, the “pSmad2 IC50, 12-point” value [15] was 0.13 nM.

B15: 2525_D05 (designed binder)
chain: MGVSDVPRDLEVVAATPTSLLISWSLPYAGHLNYYRITYGETGGNSPVQEFTVPGRGVTATISGLKPGVDYTITVYAVTLTKSQLIHYMPISINYRTEIDKPSQHHHHHH
With B15 the binding result [9] was “no binding”, the Kd [10] was 1.28 nM and the Kd [11] was 1.99 nM. The “ARE-luciferase IC50” value [12] was greater than 1000 nM, the “ARE-luciferase IC50” value [13] was 0.11 nM and the “ARE-luciferase IC50” value [14] was 3.9 nM. For the same binder, the “pSmad2 IC50, 12-point” value [15] was 0.2 nM.
